The series in a line: self-splicing fitness, log relative to wild type (ln ratio); higher = more splicing; Tetrahymena group I intron in knt gene, E. coli kanamycin selection, DiMSum; sequences stand for … in CUCUCU…GGAGGGAAAAGUUAUCAGGCAUGCACCUGGUAGCUAGUCUUUAAACCAAUAGAUUGCAUCGGUUUAAAAGGCAAGACCGUCAAAUUGCGGGAAAGGGGUCAACAGCCGUUCAGUACCAAGUCUCAGGGGAAACUUUGAGAUGGCCUUGCAAAGGGUAUGGUAAUAAGCUGACGGACAUGGUCCUAACCACGCAGCCAAGUCCUAAGUCAACAGAUCUUCUGUUGAUAUGGAUGCAGUUCACAGACUAAAUGUCGGUCGGGGAAGAUGUAUUCUUCUCAUAAGAUAUAGUCGGACCUCUCCUUAAUGGGAGCUAGCGGAUGAAGUGAUGCAACACUGGAGCCGCUGGGAACUAAUUUGUAUGCGAAAGUAUAUUGAUUAGUUUUGGAGUACUCGUGGUCG
An outline of the steps:
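The eight P1ex-region nucleotides of an intron in the knt kanamycin-resistance gene on pET-22b(+) were all randomised and the library put into E. coli BL21(DE3). Six replicate transformations were grown overnight at 37°C or 30°C on LB agar with or without 25 μg/mL kanamycin, together with 100 μg/mL carbenicillin, 50 μM IPTG and 0.2% rhamnose. Colonies were pooled and amplicon-sequenced on an Illumina HiSeq 2500. Fitness from DiMSum is the error-weighted combination of wild-type-normalised replicate fold changes, kanamycin over none.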

± gives the uncertainty stated by the source.

For CCAGAGCAAUAUUACGUGUC, the “self-splicing fitness (ln)” value by setting is: (30 °C) -2.88 ± 0.21; (37 °C) -2.29 ± 0.32.
GGGUAGCAAUAUUACGGUGC: the “self-splicing fitness (ln)” value was -1.9 ± 0.085 (30 °C) and -1.34 ± 0.092 (37 °C).
The corresponding values for CUUGAGCAAUAUUACGAAGA are -2.53 ± 0.27 and -3.17 ± 0.37.
Turning to UCAUAGCAAUAUUACGUUGC, the “self-splicing fitness (ln)” value (30 °C) was -3.86 ± 0.31 and the “self-splicing fitness (ln)” value (37 °C) is -2.31 ± 0.32.
In the case of UGUGAGCAAUAUUACGUCUA, the “self-splicing fitness (ln)” value runs as follows: (30 °C) -1.51 ± 0.16; (37 °C) -1.36 ± 0.15.
With AGCAAGCAAUAUUACGGGGU, the “self-splicing fitness (ln)” value was -2.45 ± 0.15 (30 °C) and -2 ± 0.12 (37 °C).
Turning to CUAUAGCAAUAUUACGCGCU, the “self-splicing fitness (ln)” value runs as follows: (30 °C) -4.04 ± 0.36; (37 °C) -2.61 ± 0.41.
The corresponding values for UCGCAGCAAUAUUACGCUUA are -1.67 ± 0.12 and -0.94 ± 0.09.
The corresponding values for UUGCAGCAAUAUUACGCGCU are -1.88 ± 0.18 and -0.656 ± 0.19.
The corresponding values for CCAGAGCAAUAUUACGUAGG are -3.25 ± 0.19 and -2.6 ± 0.25.
For the sequence ACCAAGCAAUAUUACGGUCC, the “self-splicing fitness (ln)” value (30 °C) is -2.8 ± 0.12 and the “self-splicing fitness (ln)” value (37 °C) was -1.07 ± 0.12.
In the case of GCCAAGCAAUAUUACGCCUG, the “self-splicing fitness (ln)” value (30 °C) is -4.13 ± 0.39 and the “self-splicing fitness (ln)” value (37 °C) is -1.13 ± 0.19.
As for CAGGAGCAAUAUUACGGAUG, the “self-splicing fitness (ln)” value by setting is: (30 °C) -2.46 ± 0.13; (37 °C) -2.02 ± 0.17.
With CGCGAGCAAUAUUACGCUAU, the “self-splicing fitness (ln)” value runs as follows: (30 °C) -3.44 ± 0.34; (37 °C) -2.2 ± 0.23.
With AUAUAGCAAUAUUACGCGUA, the “self-splicing fitness (ln)” value reads like this: (30 °C) -1.11 ± 0.19; (37 °C) -0.256 ± 0.13.
Regarding UCAGAGCAAUAUUACGGUAG, the “self-splicing fitness (ln)” value is, setting by setting: (30 °C) -3.45 ± 0.24; (37 °C) -2.39 ± 0.27.
On the same counts, the results for GAACAGCAAUAUUACGGUUU are -3.41 ± 0.13 and -1.34 ± 0.14.
In the case of UAAGAGCAAUAUUACGCCAU, the “self-splicing fitness (ln)” value by setting is: (30 °C) -2.59 ± 0.46; (37 °C) -1.46 ± 0.38.
As for GCACAGCAAUAUUACGGGCA, the “self-splicing fitness (ln)” value runs as follows: (30 °C) -1.84 ± 0.11; (37 °C) -0.886 ± 0.094.
Turning to GAGUAGCAAUAUUACGAAUC, the “self-splicing fitness (ln)” value (30 °C) is -2.47 ± 0.23 and the “self-splicing fitness (ln)” value (37 °C) is -2.31 ± 0.24.
Take UAUAAGCAAUAUUACGCUUC: under “30 °C”, the “self-splicing fitness (ln)” value was -3.58 ± 0.38.
Turning to ACAUAGCAAUAUUACGUUCA, the “self-splicing fitness (ln)” value (30 °C) is -1.39 ± 0.095 and the “self-splicing fitness (ln)” value (37 °C) is -0.808 ± 0.13.
For the sequence GACUAGCAAUAUUACGUGGA, the “self-splicing fitness (ln)” value was -1.46 ± 0.13 (30 °C) and -1.07 ± 0.16 (37 °C).
For UUGAAGCAAUAUUACGUGCA, the “self-splicing fitness (ln)” value is, setting by setting: (30 °C) -0.222 ± 0.068; (37 °C) 0.447 ± 0.1.
As to UGUUAGCAAUAUUACGGUAG, the “self-splicing fitness (ln)” value (30 °C) is -0.65 ± 0.22 and the “self-splicing fitness (ln)” value (37 °C) was -0.35 ± 0.19.
Turning to UUUUAGCAAUAUUACGAUGC, the “self-splicing fitness (ln)” value (37 °C) was -2.46 ± 0.38.
As to CAACAGCAAUAUUACGAUUC, the “self-splicing fitness (ln)” value reads like this: (30 °C) -0.966 ± 0.087; (37 °C) -0.733 ± 0.11.
With CAGUAGCAAUAUUACGCAUU, the “self-splicing fitness (ln)” value is, setting by setting: (30 °C) -1.49 ± 0.18; (37 °C) -2.5 ± 0.22.
As to CUGGAGCAAUAUUACGUCGU, the “self-splicing fitness (ln)” value (30 °C) was -3.88 ± 0.23 and the “self-splicing fitness (ln)” value (37 °C) is -2.39 ± 0.22.
Consider GCAAAGCAAUAUUACGAGCA, for which the “self-splicing fitness (ln)” value was -2.04 ± 0.095 (30 °C) and -0.394 ± 0.08 (37 °C).
As to UGAUAGCAAUAUUACGCCCU, the “self-splicing fitness (ln)” value is, setting by setting: (30 °C) -0.0785 ± 0.15; (37 °C) 0.0233 ± 0.21.
The corresponding values for CACGAGCAAUAUUACGGCUA are -2.19 ± 0.22 and -1.41 ± 0.17.
As to CAAGAGCAAUAUUACGUCUU, the “self-splicing fitness (ln)” value (30 °C) is -3.62 ± 0.25 and the “self-splicing fitness (ln)” value (37 °C) is -1.46 ± 0.11.
The corresponding values for GAUCAGCAAUAUUACGGGGG are -3.25 ± 0.18 and -2.51 ± 0.18.
Consider CGCUAGCAAUAUUACGUUCC, for which the “self-splicing fitness (ln)” value runs as follows: (30 °C) -2.83 ± 0.15; (37 °C) -2.81 ± 0.31.
On to ACAAAGCAAUAUUACGCACC, for which the “self-splicing fitness (ln)” value (30 °C) was -0.449 ± 0.19 and the “self-splicing fitness (ln)” value (37 °C) was found to be 0.128 ± 0.2.
As for AUAAAGCAAUAUUACGCACC, the “self-splicing fitness (ln)” value (30 °C) is -0.896 ± 0.33 and the “self-splicing fitness (ln)” value (37 °C) was -1.02 ± 0.29.
For the sequence CGACAGCAAUAUUACGUCGG, the “self-splicing fitness (ln)” value is, setting by setting: (30 °C) -1.83 ± 0.11; (37 °C) -1.44 ± 0.15.
Consider GCCUAGCAAUAUUACGGCCG, for which the “self-splicing fitness (ln)” value by setting is: (30 °C) -3.44 ± 0.26; (37 °C) -2.37 ± 0.32.
On to AUGUAGCAAUAUUACGAUAG, for which the “self-splicing fitness (ln)” value by setting is: (30 °C) -2.48 ± 0.19; (37 °C) -2.67 ± 0.27.
On the same counts, the results for UAAUAGCAAUAUUACGAGAC are -3.38 ± 0.28 and -2.03 ± 0.28.
With CGCUAGCAAUAUUACGCACA, the “self-splicing fitness (ln)” value is, setting by setting: (30 °C) -1.37 ± 0.13; (37 °C) -0.405 ± 0.1.
As to CAACAGCAAUAUUACGCCCU, the “self-splicing fitness (ln)” value is, setting by setting: (30 °C) -1.96 ± 0.086; (37 °C) -1.24 ± 0.1.
On the same counts, the results for CCUGAGCAAUAUUACGUUAC are -3.52 ± 0.26 and -3.09 ± 0.36.
On to UCCAAGCAAUAUUACGGGCA, for which the “self-splicing fitness (ln)” value runs as follows: (30 °C) -0.884 ± 0.06; (37 °C) 0.244 ± 0.074.
Take GGGAAGCAAUAUUACGACUU: the “self-splicing fitness (ln)” value reads like this: (30 °C) 0.323 ± 0.11; (37 °C) -0.202 ± 0.15.
The corresponding values for CGAAAGCAAUAUUACGACCG are -0.423 ± 0.12 and -0.183 ± 0.15.
The corresponding values for CCGAAGCAAUAUUACGCGAU are -3.78 ± 0.28 and -1.93 ± 0.33.
As for AGCUAGCAAUAUUACGACGG, the “self-splicing fitness (ln)” value is -1.66 ± 0.23 (30 °C) and -1.43 ± 0.42 (37 °C).
On to CGUAAGCAAUAUUACGACUC, for which the “self-splicing fitness (ln)” value (30 °C) is -3.64 ± 0.3 and the “self-splicing fitness (ln)” value (37 °C) was -0.95 ± 0.17.
Regarding CUUAAGCAAUAUUACGCCAU, the “self-splicing fitness (ln)” value (30 °C) is -1.9 ± 0.33 and the “self-splicing fitness (ln)” value (37 °C) is -2.35 ± 0.29.
Regarding ACACAGCAAUAUUACGCUUC, the “self-splicing fitness (ln)” value (37 °C) was -3.08 ± 0.23.
In the case of CCGAAGCAAUAUUACGAAUA, the “self-splicing fitness (ln)” value runs as follows: (30 °C) -2.66 ± 0.24; (37 °C) -2.49 ± 0.21.
UGGAAGCAAUAUUACGGAUA: the “self-splicing fitness (ln)” value by setting is: (30 °C) -0.862 ± 0.084; (37 °C) -1.04 ± 0.088.
Regarding GUUGAGCAAUAUUACGUGGC, the “self-splicing fitness (ln)” value is -3.09 ± 0.25 (30 °C) and -2.17 ± 0.28 (37 °C).
On to AGUCAGCAAUAUUACGCCGG, for which the “self-splicing fitness (ln)” value (30 °C) was -2.86 ± 0.48.
For the sequence CGGAAGCAAUAUUACGUAUA, the “self-splicing fitness (ln)” value by setting is: (30 °C) -2.82 ± 0.24; (37 °C) -2.63 ± 0.3.
The corresponding values for GGGAAGCAAUAUUACGGUAU are -2.78 ± 0.18 and -1.63 ± 0.15.
Regarding CCGGAGCAAUAUUACGGCCG, the “self-splicing fitness (ln)” value by setting is: (30 °C) -2.44 ± 0.26; (37 °C) -0.644 ± 0.21.
The corresponding values for GGGUAGCAAUAUUACGUGCU are -0.698 ± 0.15 and -0.399 ± 0.19.
As to AGAAAGCAAUAUUACGAUGC, the “self-splicing fitness (ln)” value was -2.16 ± 0.14 (30 °C) and -1.38 ± 0.13 (37 °C).
